Drawing on patent publication US20230235027A1, this text covers koff and kon for one substance.

One assay has as its target L452R (SARS-CoV-2). The experiment in a line: kinetic measurement, method not stated; table row L452R.
Another assay has as its target N439K (SARS-CoV-2). The experiment in a line: kinetic measurement, method not stated; table row N439K.
A further assay addresses E484K (SARS-CoV-2). The experiment in a line: kinetic measurement, method not stated; table row E484K.
A further assay addresses F490L (SARS-CoV-2). The assay is described as follows: kinetic measurement, method not stated; table row F490L.
A further assay deals with A475V (SARS-CoV-2). The assay is described as follows: kinetic measurement, method not stated; table row A475V.
Another assay addresses B.1.351 (Gamma). The assay is described as follows: kinetic measurement, method not stated; table row B.1.351 (Gamma).
A further assay addresses K417N (SARS-CoV-2). The experiment in a line: kinetic measurement, method not stated; table row K417N.
Another assay deals with N501Y (SARS-CoV-2). The experiment in a line: kinetic measurement, method not stated; table row N501Y.

NIH-CoVnb-112 (VHH), sequence (VHH): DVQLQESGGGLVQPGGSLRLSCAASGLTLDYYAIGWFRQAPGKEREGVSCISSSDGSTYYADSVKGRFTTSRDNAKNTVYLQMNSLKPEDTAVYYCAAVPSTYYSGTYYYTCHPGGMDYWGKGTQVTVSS

Broadly, the koff is the rate constant with which the complex falls apart. A high value points to fast dissociation. By kon is commonly meant the rate constant with which the complex forms. A high value points to faster complex formation. With NIH-CoVnb-112 (VHH), the dissociation rate constant (koff) turned out to be 0.00127 s⁻¹ with L452R (SARS-CoV-2); 0.000302 s⁻¹ with N439K (SARS-CoV-2); 0.000304 s⁻¹ with E484K (SARS-CoV-2); 0.000926 s⁻¹ with F490L (SARS-CoV-2); 0.000209 s⁻¹ with A475V (SARS-CoV-2); 0.000705 s⁻¹ in the assay with B.1.351 (Gamma). Besides, the dissociation rate constant (koff) with K417N (SARS-CoV-2) came out at 0.000157 s⁻¹; in the assay with N501Y (SARS-CoV-2), 0.000428 s⁻¹. Besides, the association rate constant (kon) with L452R (SARS-CoV-2) is 209000 M⁻¹ s⁻¹; with N439K (SARS-CoV-2), 189000 M⁻¹ s⁻¹; in the assay with E484K (SARS-CoV-2), 256000 M⁻¹ s⁻¹; with F490L (SARS-CoV-2), 158000 M⁻¹ s⁻¹; with A475V (SARS-CoV-2), 169000 M⁻¹ s⁻¹; with B.1.351 (Gamma) it was 201000 M⁻¹ s⁻¹. Further, the figures for the kon with K417N (SARS-CoV-2) and in the assay with N501Y (SARS-CoV-2) were 120000 M⁻¹ s⁻¹ and 153000 M⁻¹ s⁻¹, respectively.
